Measured values from paper PMC11524583, “Neurons enhance blood–brain barrier function via upregulating claudin-5 and VE-cadherin expression due to glial cell line-derived neurotrophic factor secretion” (eLife, 2024).
Several values for one entry are separate records, joined by “and”; a condition that tells them apart may be missing. Equal entries are not always repeated.

Columns and labels:
Type in all cases: cell-based, Homo sapiens
[1] = tested on: p-ERK/ERK; test: Western blot of p-ERK/ERK in hCMEC/D3 cells
Description: (§1) Whole-cell and tissue lysates, nucleoprotein, and cytoplasmic protein were prepared using RIPA Lysis Buffer (Beyotime, Shanghai, China) as the described method ([Wu et al., 2021]). Proteins were separated through sodium dodecyl sulfate–polyacrylamide gel electrophoresis and transferred onto nitrocellulose or polyvinylidene difluoride membranes. The membranes were blocked with 5% skim milk and incubated with corresponding primary antibodies at 4°C overnight. After being washed with Tris-buffered saline Tween buffer, the membranes were incubated with secondary antibodies (Cell Signaling Technology, MA, USA) at 1:3000 dilution: Anti-mouse IgG, HRP-linked Antibody (#7076), Anti-rabbit IgG, HRP-linked Antibody (#7074). Protein levels were visualized using a highly sensitive ECL western blotting substrate and a gel imaging system (Tanon Science & Technology, Shanghai, China).
(§2) Exogenous and endogenous GDNF in the medium was neutralized with anti-GDNF antibody (#AF-212-NA, R&D system, Minneapolis, MN, USA). 0.25, 0.5, and 1.0 μg/ml anti-GDNF antibody was added into the US-CM or medium containing 200 pg/ml GDNF, and then the medium was preincubated at 4°C for 1 hr. The hCMEC/D3 cells were incubated with 200 pg/ml GDNF or US-CM containing anti-GDNF antibody or not for 6 days, and then cell lysate was collected for western blot. The medium was replaced every 24 hr.

[2] = tested on: p-AKT/AKT; test: Western blot of p-AKT/AKT in hCMEC/D3 cells
Description: as §1, §2

[3] = tested on: ETS1; test: Western blot of total and nuclear ETS1 in hCMEC/D3 cells; details: for ETS1/β-actin Relative Expression, Mean / ETS1/Lamin B Relative Expression, Mean: group mean; for ETS1/β-actin Relative Expression / ETS1/Lamin B Relative Expression: individual replicates
Description: as §1
Here, hCMEC/D3 cells were plated in the plates or culture dishes at 6 × 10^4 cells/cm^2 and transfected with 10 nM of negative control or human FOXO1, ETS1, and CDH5 siRNA (Tsingke Biotechnology, Beijing, China) for 12 hr using Lipofectamine 3000 (Invitrogen, Carlsbad, CA, USA) reagent according to the manufacturer’s instructions. Cells were then incubated with a medium containing GDNF for 72 hr.

[4] = hCMEC/D3 cells, 200 pg/ml GDNF or US-CM
[5] = mean of 4, relative to Con, GDNF alone, Figure 3E
[6] = single replicate, relative to Con, GDNF alone, Figure 3E

B1: GDNF: glial cell line-derived neurotrophic factor, recombinant protein (R&D system) (protein, UniProt P39905 78-211, looked up)
Glial cell line-derived …: SPDKQMAVLPRRERNRQAAAANPENSRGKGRRGQRGKNRGCVLTAIHLNVTDLGLGYETKEELIFRYCSGSCDAAETTYDKILKNLSRNRRLVSDKVGQACCRPIAFDDDLSFLDDNLVYHILRKHSAKRCGCI
B1 was tested, and the “phosphorylation of ERK (p-ERK)” value [1, 4] was “accompanied by the phosphorylation”, the “p-ERK/ERK Relative Expression, Mean” value [1, 5] was 1.352 and the “p-ERK/ERK Relative Expression, Mean” value ([1]; relative to Con (mean 1.000), mean of 4, Figure 3B) was 1.377. The “p-ERK/ERK Relative Expression” value ([1]; relative to Con (mean 1.000), single replicates, Figure 3B) was 1.512 and 1.333 and 1.310 and 1.351, the “p-ERK/ERK Relative Expression” value [1, 6] was 1.315 and 1.511 and 1.307 and 1.277 and the “phosphorylation of AKT (p-AKT)” value [2, 4] was “accompanied by the phosphorylation”. The “p-AKT/AKT Relative Expression, Mean” value [2, 5] was 1.284, the “p-AKT/AKT Relative Expression, Mean” value ([2]; relative to Con (mean 1.000), mean of 4, Figure 3A) was 1.345 and the “p-AKT/AKT Relative Expression” value ([2]; relative to Con (mean 1.000), single replicates, Figure 3A) was 1.311 and 1.24 and 1.38 and 1.4488. For the same molecule, the “p-AKT/AKT Relative Expression” value [2, 6] was 1.359 and 1.208 and 1.388 and 1.180, the “ETS1/β-actin Relative Expression, Mean” value ([3]; Figure 5A, Con = 1.000) was 1.877 and the “ETS1/β-actin Relative Expression” value ([3]; Figure 5A, relative to Con) was 1.777 and 1.712 and 2.125 and 1.893. The “ETS1/Lamin B Relative Expression, Mean” value ([3]; Figure 5B, Con = 1.000) was 1.560, the “ETS1/Lamin B Relative Expression” value ([3]; Figure 5B, relative to Con) was 1.659 and 1.595 and 1.316 and 1.670 and the “ETS1/β-actin Relative Expression, Mean” value ([3]; Figure 5C, Con = 1.000, GDNF group of LY and U0 inhibitor experiment) was 1.287. For the same molecule, the “ETS1/β-actin Relative Expression” value ([3]; Figure 5C, relative to Con, GDNF group of LY and U0 inhibitor experiment) was 1.182 and 1.224 and 1.389 and 1.354, the “ETS1/Lamin B Relative Expression, Mean” value ([3]; Figure 5D, Con = 1.000) was 2.084 and the “ETS1/Lamin B Relative Expression” value ([3]; Figure 5D, relative to Con) was 1.875 and 2.209 and 2.073 and 2.180. The “ETS1/β-actin Relative Expression, Mean” value ([3]; Figure 5E, NC = 1.000) was 1.499, the “ETS1/β-actin Relative Expression” value ([3]; Figure 5E, relative to NC) was 1.466 and 1.523 and 1.519 and 1.490 and the “ETS1/Lamin B Relative Expression, Mean” value ([3]; Figure 5F, NC = 1.000) was 1.528. For the same molecule, the “ETS1/Lamin B Relative Expression” value ([3]; Figure 5F, relative to NC) was 1.629 and 1.498 and 1.595 and 1.392, the “nuclear ETS1 expression” value ([3]; hCMEC/D3 cells, US-CM or GDNF) was “significantly increased” and the “total ETS1 expression” value ([3]; hCMEC/D3 cells, US-CM or GDNF) was “significantly increased”.
